The source of these data is US20110014669A1, “Production of 1,4 Butanediol in a Microorganism” (Microbia, Inc., priority 2009, published 2011).

What all share (assay type): biochemical
Holding throughout (design): key: +: measureable activity detected in the assay; −: no measurable activity detected in the assay

In one experiment the test system is 5-hydroxy-L-norvaline. Briefly: Enzyme assay, aminotransferase (step A4), cell lysates. The settings on record: BDO biosynthetic pathway step A4. The method, then: (§1) Enzyme expression and crude lysate preparation. The enzymatic activity of each candidate enzyme is evaluated, first in E. coli and subsequently in C. glutamicum. It will be apparent to one of skill in the art that the expression and lysate preparations may need to be modified depending on the host cell and recombinant gene of interest.
(§2) E. coli: E. coli strains transformed with expression clones, for example, pUC18 or MB4124 based clones having a medium strong constitutive promoter regulating the recombinant gene of interest, are grown aerobically in LB medium (Difco) containing the appropriate antibiotic(s). At an OD600 of 0.5, IPTG is added to a final concentration of 0.25 mM. The cultures are grown to a final OD600 of 1.5 at which time the cells are collected and harvested by centrifugation. Cell pellets are resuspended in BugBuster (Novagen) reagent containing benzonase and lysozyme. Alternatively, E. coli strains transformed with expression clones, are grown overnight aerobically at 37° C. in BHI containing the appropriate antibiotic(s). 300 μL of fresh overnight culture is used to inoculate 2.7 mL BHI containing 0.25 mM IPTG and the appropriate antibiotic. The cultures are grown aerobically for 4-5 hours at 37° C. at which time the cells are collected and harvested by centrifugation. Cell pellets are frozen at −80° C. for at least 15 minutes, then thawed and resuspended in BugBuster (Novagen) reagent. Lysis and lysate collection are performed according to the manufacturer's instructions and, for example, may involve use of a sonicator and/or French press. Cleared lysates are stored on ice until enzyme assays are performed.
(§3) C. glutamicum: C. glutamicum strains transformed with MB4124 expression clones containing the recombinant gene of interest are grown aerobically in BHI broth supplemented with the proper antibiotic(s). At an OD600 of 0.5, IPTG is added to a final concentration of 0.25 mM. The cultures are grown to a final OD600 of 1.5 at which time the cells are collected and harvested by centrifugation. The pellet is washed once in one volume of water and resuspended in lysis buffer (1.0 ml 1.0 M HEPES buffer, pH 7.5, 0.5 ml 1M KOH, 10 μl 0.5M EDTA, protease inhibitor cocktail, water to 5 ml; the final pH will vary depending on the individual enzyme being tested) and one volume of 0.1 mm acid washed glass beads. The mixture is repeatedly alternately vortexed and held on ice for 15 seconds, eight times. After centrifugation for 5 min at 4,000 rpm, the supernatant lysate is removed and respun for 20 min at 10,000 rpm. Alternatively, C. glutamicum strains transformed with MB4124 expression clones containing the recombinant gene of interest are grown aerobically overnight in BHI broth supplemented with the proper antibiotic(s). Five mL of fresh overnight culture is used to inoculate 200 mL BHI containing 0.25 mM IPTG and the appropriate antibiotic. The cultures are grown aerobically at 30° C. for 5-7 hours at which time the cells are collected and harvested by centrifugation at 4° C. The pellet is resuspended in 15 mL ice cold 39 mM KH2PO4, 61 mM K2HPO4, 0.5 M KCl and lysed using a BioSpec BeadBeater and following the manufacturer's instructions. […]
(§4) Protein Assays. Protein concentrations in lysates are determined according to the methods of Bradford et al. (Anal. Biochem. 72:248-254 [1976]) or by the method of Smith et al. (Anal. Biochem. 150(1):76-85 [1985]) and lysates are assayed according to the methods below. […]

In experiment [1] the test system is L-glutamate 5-semialdehyde (GSA). Nature of the experiment: Enzyme assay, oxidoreductase (step A3), cell lysates. The settings on record: BDO biosynthetic pathway step A3. The method, then: as §1, §2, §3, §4
Experiment [2] concerns 5-hydroxy-2-oxopentanoate. Briefly: Enzyme assay, decarboxylase (step A5), aldehyde dehydrogenase linked reaction. The note with it: BDO biosynthetic pathway step A5. The method, then: as §1, §2
C. glutamicum: C. glutamicum strains transformed with MB4124 expression clones containing the recombinant gene of interest are grown aerobically in BHI broth supplemented with the proper antibiotic(s). At an OD600 of 0.5, IPTG is added to a final concentration of 0.25 mM. The cultures are grown to a final OD600 of 1.5 at which time the cells are collected and harvested by centrifugation. The pellet is washed once in one volume of water and resuspended in lysis buffer (1.0 ml 1.0 M HEPES buffer, pH 7.5, 0.5 ml 1M KOH, 10 μl 0.5M EDTA, protease inhibitor cocktail, water to 5 ml; the final pH will vary depending on the individual enzyme being tested) and one volume of 0.1 mm acid washed glass beads. The mixture is repeatedly alternately vortexed and held on ice for 15 seconds, eight times. After centrifugation for 5 min at 4,000 rpm, the supernatant lysate is removed and respun for 20 min at 10,000 rpm. Alternatively, C. glutamicum strains transformed with MB4124 expression clones containing the recombinant gene of interest are grown aerobically overnight in BHI broth supplemented with the proper antibiotic(s). Five mL of fresh overnight culture is used to inoculate 200 mL BHI containing 0.25 mM IPTG and the appropriate antibiotic. The cultures are grown aerobically at 30° C. for 5-7 hours at which time the cells are collected and harvested by centrifugation at 4° C. The pellet is resuspended in 15 mL ice cold 39 mM KH2PO4, 61 mM K2HPO4, 0.5 M KCl and lysed using a BioSpec BeadBeater and following the manufacturer's instructions. The lysate is centrifuged at 16,000 RPM at 4° C. for 30 minutes and the supernatant retained on ice as the extract.
Protein Assays. Protein concentrations in lysates are determined according to the methods of Bradford et al. (Anal. Biochem. 72:248-254 [1976]) or by the method of Smith et al. (Anal. Biochem. 150(1):76-85 [1985]) and lysates are assayed according to the methods below.
Enzyme Assays. Enzyme assays are performed on the cell lysates prepared above. The activity for each recombinant enzyme is compared to a lysate from a vector only control culture which is generated in a fashion identical to the recombinant enzyme lysate. […]

B1: BATlY1: Enzyme candidate for BDO biosynthetic pathway step A4, SEQ ID NO. 31 (protein, listed as Yarrowia lipolytica)
chain: MLRNNLRSLSRAFSTSSMRLGAGMDASKLQITKTKSPKEKQAPKDLIFGHTFTDHMLTVEWTAKDGWAAPQITPYGPLELDPSAVVLHYAFECFEGLKAYKDESGNVRLFRVDKNMHRMNTSAERICLPEFDGAEAAKLIGQLAKLDSAWIPEGRGYSMYLRPSLIGTTAALGVGTPDKALFYVIASPVGPYYPTGFKAVKLEATDYAVRAWPGGVGNKKLGANYAPCIKPQQQAASRGYQQNLWLFGDEGNITEVGTMNAFFVFERNGKKELVTAPLDGTILEGVTRDSILELARERLPSADWIVSERYCTIKEVAEAAEKGELVEAFGAGTAAVVSPIKEIGWGEKTINIPLQPGKEAGKLTETVNEWIGDIQYGKDEYKGWSKVV
Turning to B1, the “Enzyme Assay” value in the experiment on 5-hydroxy-L-norvaline is reported as “−”.

B2: BioACg: Enzyme candidate for BDO biosynthetic pathway step A4, SEQ ID NO. 29 (protein, listed as Corynebacterium glutamicum)
chain: MENPSLRELDHRNIWHPYAAPGVRNRLVTKTDGVFLTLEDGSTVIDAMSSWWSAIHGHGHPRLKAAAQKQIDTMSHVMFGGLTHEPAIKLTHKLLNLTGNSFDHVFYSDSGSVSVEVAIKMALQASKGQGHPERTKLLTWRSGYHGDTFTAMSVCDPENGMHSLWKGTLPEQIFAPAPPVRGSSPQAISEYLRSMELLIDETVSAIIIEPIVQGAGGMRFHDVALIEGVATLCKKHDRFLIVDEIATGFGRTGELFATLSNGLQPDIMCVGKALTGGFMSFAATLCTDKVAQLISTPNGGGALMHGPTFMANPLACAVSHASLEIIETGMWQKQVKRIEAELIAGLSPLQHLPGVADVRVLGAIGVIEMEQNVNVEEATQAALDHGVWIRPFGRLLYVMPPYITTSEQCAQICTALHAAVKGK
Take B2: the “Enzyme Assay” value in the experiment with 5-hydroxy-L-norvaline was “−”.

B3: HomCg: Enzyme candidate for BDO biosynthetic pathway step A3, SEQ ID NO. 22 (protein, listed as Corynebacterium glutamicum)
chain: MTSASAPSFNPGKGPGSAVGIALLGFGTVGTEVMRLMTEYGDELAHRIGGPLEVRGIAVSDISKPREGVAPELLTEDAFALIEREDVDIVVEVIGGIEYPREVVLAALKAGKSVVTANKALVAAHSAELADAAEAANVDLYFEAAVAGAIPVVGPLRRSLAGDQIQSVMGIVNGTTNFILDAMDSTGADYADSLAEATRLGYAEADPTADVEGHDAASKAAILASIAFHTRVTADDVYCEGISNISAADIEAAQQAGHTIKLLAICEKFTNKEGKSAISARVHPTLLPVSHPLASVNKSFNAIFVEAEAAGRLMFYGNGAGGAPTASAVLGDVVGAARNKVHGGRAPGESTYANLPIADFGETTTRYHLDMDVEDRVGVLAELASLFSEQGISLRTIRQEERDDDARLIVVTHSALESDLSRTVELLKAKPVVKAINSVIRLERD
Regarding B3, the “Enzyme Assay” value in experiment [1] was “−”.

B4: HomAu: Enzyme candidate for BDO biosynthetic pathway step A3, SEQ ID NO. 24 (protein, listed as Arthrobacter aurescens)
chain: MSEMRTLKVALLGCGNVGAQVARILIDDAEALAARSGARLELSGIAVRNVDSPRDVELPRELFTTDADTLVKDADLVIELMGGIEPARSLILTAIQNGACVVTGNKALLAQDGPTLYEEADKAGVQLSYEAAVAGAIPILRPIRDSLSGDRITRVLGIVNGTTNFILDQMDSTGAQFADALAEAQRLGYAEADPTADVEGHDAAAKAAILASLSFHTRFSLDDVYCEGITKVSAADIASAKEAGFVIKLLAIAEKIDSSDNGSGISVRVHPTLLPREHPLAAVRGAFNAVFIEAENAGELMFYGQGAGGTPTASAVLGDLVSAARRLVLGGPGRTETTTGHVPALAIDASNTSYYIGLDVADQAGVLARIAHIFAENGVSIEIMRQTIHRDSASNVESAELKIVTHRASEAALAATVEAVKGLDVINSVTSVLRVEGV
Consider B4, for which the “Enzyme Assay” value in experiment [1] was “−”.

B5: IlvECg: Enzyme candidate for BDO biosynthetic pathway step A4, SEQ ID NO. 28 (protein, listed as Corynebacterium glutamicum)
chain: MYLSGSRCTLKSMTSLEFTVTRTENPTSPDRLKEILAAPKFGKFFTDHMVTIDWNESEGWHNAQLVPYAPIPMDPATTVFHYGQAIFEGIKAYRHSDETIKTFRPDENAERMQRSAARMAMPQLPTEDFIKALELLVDADQDWVPEYGGEASLYLRPFMISTEIGLGVSPADAYKFLVIASPVGAYFTGGIKPVSVWLSEDYVRAAPGGTGDAKFAGNYAASLLAQSQAAEKGCDQVVWLDAIEHKYIEEMGGMNLGFIYRNGDQVKLVTPELSGSLLPGITRKSLLQVARDLGYEVEERKITTTEWEEDAKSGAMTEAFACGTAAVITPVGTVKSAHGTFEVNNNEVGEITMKLRETLTGIQQGNVEDQNGWLYPLVG
Turning to B5, the “Enzyme Assay” value in the experiment on 5-hydroxy-L-norvaline is “−”.

B6: ARO10Sc: Enzyme candidate for BDO biosynthetic pathway step A5, SEQ ID NO. 70 (protein, listed as Saccharomyces cerevisiae)
chain: MAPVTIEKFVNQEERHLVSNRSATIPFGEYIFKRLLSIDTKSVFGVPGDFNLSLLEYLYSPSVESAGLRWVGTCNELNAAYAADGYSRYSNKIGCLITTYGVGELSALNGIAGSFAENVKVLHIVGVAKSIDSRSSNFSDRNLHHLVPQLHDSNFKGPNHKVYHDMVKDRVACSVAYLEDIETACDQVDNVIRDIYKYSKPGYIFVPADFADMSVTCDNLVNVPRISQQDCIVYPSENQLSDIINKITSWIYSSKTPAILGDVLTDRYGVSNFLNKLICKTGIWNFSTVMGKSVIDESNPTYMGQYNGKEGLKQVYEHFELCDLVLHFGVDINEINNGHYTFTYKPNAKIIQFHPNYIRLVDTRQGNEQMFKGINFAPILKELYKRIDVSKLSLQYDSNVTQYTNETMRLEDPTNGQSSIITQVHLQKTMPKFLNPGDVVVCETGSFQFSVRDFAFPSQLKYISQGFFLSIGMALPAALGVGIAMQDHSNAHINGGNVKEDYKPRLILFEGDGAAQMTIQELSTILKCNIPLEVIIWNNNGYTIERAIMGPTRSYNDVMSWKWTKLFEAFGDFDGKYTNSTLIQCPSKLALKLEELKNSNKRSGIELLEVKLGELDFPEQLKCMVEAAALKRNKK
For B6, the “Enzyme Assay” value in experiment [2] is on record as “−”.

B7: BcaTLp: Enzyme candidate for BDO biosynthetic pathway step A4, SEQ ID NO. 34 (protein, listed as Lactobacillus plantarum)
chain: MADVQLDWNNLGFEYRNLPYRYRAYWKDGAWYKKELTGDATLHISEGSTALHYGQQDFEGLKAYRTKDGSVQLFRPDRNAARMQTSCERLLMPQVPTDMFVDAVKQVVKANQDYVPPYGTGATLYLRPLMIGVGGNIGVHPAQEYIFTVFAMPVGSYFKGGMTPTNFTTSEYDRAAHKGTGAYKVGGNYAASLFPGQEAHANGFSDCVYLDPVEHRKIEEVGSANFFGITKDGTFVTPKSPSILPAVTKYSLLYLAEHKFGMKTEQGDVYIDDLDRFAEAGACGTAAVISPIGGLEHQGKLHVFYSETEVGPVTKKLYDELTGIQFGDREAPEGWVQKVELD
As for B7, the “Enzyme Assay” value in the experiment on 5-hydroxy-L-norvaline is listed as “−”.
